Assay results from paper PMC5665175 (Immunity, 2017).

Molecular target: the molecule itself
Assay: X-ray diffraction from fibrils

Protein	binding result
NVHSAQQQVVMNFSNANNLHFGSVYN (domain or fragment, D. melanogaster, UniProt Q7K4Z4 100-125, looked up) [6xHis-Sumo-Imd(100-125)]	binds

Molecular target: the molecule itself
Assay: SEC

Protein	binding result
ATQGIGSIALTNSTDVTFGDKHFYEGPVTIQQFLIDNRDKWK (domain or fragment, D. melanogaster, UniProt Q9GNK5 201-242, looked up) [6xHis-Sumo-PGRP-LC(201-242) WT]	binds

Molecular target: the molecule itself
Assay: SDD-AGE

Protein	binding result
6xHis-Sumo-Imd(31-273) (domain or fragment, D. melanogaster, UniProt Q7K4Z4 31-273, looked up) AAPVDDNEPDNNNSGALALPSTAGTPTASSDLTESVLRELSDPNYNSMDVVHSANIPGTLSNVQTNNTMNVHSAQQQVVMNFSNANNLHFGSVYNFNQNLSACSSRKGSTSTAEESVASPDGKPRASATRKTVSIVAMMQSQEEPDVRLLDVVSTHLGEGWKQVMRDLGMSEGQIDQAIIDHQMHGNIREVIYQLLLQWIRSSADGVATVGRLTTLLWESQHRDCVQRMKLVWKALEKRKTNS	binds
6xHis-Sumo-Imd(31-273) Δ114-121 (domain or fragment, D. melanogaster, UniProt Q7K4Z4 31-273, looked up) AAPVDDNEPDNNNSGALALPSTAGTPTASSDLTESVLRELSDPNYNSMDVVHSANIPGTLSNVQTNNTMNVHSAQQQVVMNFSSVYNFNQNLSACSSRKGSTSTAEESVASPDGKPRASATRKTVSIVAMMQSQEEPDVRLLDVVSTHLGEGWKQVMRDLGMSEGQIDQAIIDHQMHGNIREVIYQLLLQWIRSSADGVATVGRLTTLLWESQHRDCVQRMKLVWKALEKRKTNS	binds
6xHis-Sumo-Imd(31-273) Δ144-177 (domain or fragment, D. melanogaster, UniProt Q7K4Z4 31-273, looked up) AAPVDDNEPDNNNSGALALPSTAGTPTASSDLTESVLRELSDPNYNSMDVVHSANIPGTLSNVQTNNTMNVHSAQQQVVMNFSNANNLHFGSVYNFNQNLSACSSRKGSTSTARLLDVVSTHLGEGWKQVMRDLGMSEGQIDQAIIDHQMHGNIREVIYQLLLQWIRSSADGVATVGRLTTLLWESQHRDCVQRMKLVWKALEKRKTNS	binds
6xHis-Sumo-Imd(31-167) (domain or fragment, D. melanogaster, UniProt Q7K4Z4 31-167, looked up) AAPVDDNEPDNNNSGALALPSTAGTPTASSDLTESVLRELSDPNYNSMDVVHSANIPGTLSNVQTNNTMNVHSAQQQVVMNFSNANNLHFGSVYNFNQNLSACSSRKGSTSTAEESVASPDGKPRASATRKTVSIVA	binds
6xHis-Sumo-Imd(31-273) Δ76-109 (domain or fragment, D. melanogaster, UniProt Q7K4Z4 31-273, looked up) AAPVDDNEPDNNNSGALALPSTAGTPTASSDLTESVLRELSDPNYMNFSNANNLHFGSVYNFNQNLSACSSRKGSTSTAEESVASPDGKPRASATRKTVSIVAMMQSQEEPDVRLLDVVSTHLGEGWKQVMRDLGMSEGQIDQAIIDHQMHGNIREVIYQLLLQWIRSSADGVATVGRLTTLLWESQHRDCVQRMKLVWKALEKRKTNS	binds

Molecular target: the molecule itself
Assay: SDD-AGE
Remark: another data set of the same source

Protein	binding result
DLMNSINSIQTLGNVNISNSTNVHIGNVTNINGNIQIIADGLTQNRRD (domain or fragment, D. melanogaster, UniProt Q9VXN9 80-127, looked up) [6xHis-Sumo-PGRP-LE(80-127) WT]	binds
DLMNSINSIQTLGNVNISNSTNVHAGNVTNINGNIQIIADGLTQNRRD (domain or fragment, D. melanogaster, UniProt Q9VXN9 80-127, looked up) [6xHis-Sumo-PGRP-LE(80-127) I104A]	binds
DLMNSINSIQTLGNVNISNSTNVHIGNVTNINGNIQAIADGLTQNRRD (domain or fragment, D. melanogaster, UniProt Q9VXN9 80-127, looked up) [6xHis-Sumo-PGRP-LE(80-127) I116A]	binds
DLMNSINSIQTLGNVNISNATNVHIGNVTNINGNIQIIADGLTQNRRD (domain or fragment, D. melanogaster, UniProt Q9VXN9 80-127, looked up) [6xHis-Sumo-PGRP-LE(80-127) S99A]	binds
DLMNSINSIQTLGNVNASNSTNVHIGNVTNINGNIQIIADGLTQNRRD (domain or fragment, D. melanogaster, UniProt Q9VXN9 80-127, looked up) [6xHis-Sumo-PGRP-LE(80-127) I96A]	binds
ATQGIGSIALTNSTDVTFGDKHFYAGPVTIQQFLIDNRDKWK (domain or fragment, D. melanogaster, UniProt Q9GNK5 201-242, looked up) [6xHis-Sumo-PGRP-LC(201-242) E225A]	binds
ATQGIGSIALTNSTAVTFGDKHFYEGPVTIQQFLIDNRDKWK (domain or fragment, D. melanogaster, UniProt Q9GNK5 201-242, looked up) [6xHis-Sumo-PGRP-LC(201-242) D215A]	binds

Molecular target: the molecule itself
Assay: ThT fluorescence of amyloid polymerisation

Protein	binding result
6xHis-Sumo-Imd(3-273) (domain or fragment, D. melanogaster, UniProt Q7K4Z4 3-273, looked up) KLRNLLPTIFGGKEAQNPTPVEGRLEKDAAPVDDNEPDNNNSGALALPSTAGTPTASSDLTESVLRELSDPNYNSMDVVHSANIPGTLSNVQTNNTMNVHSAQQQVVMNFSNANNLHFGSVYNFNQNLSACSSRKGSTSTAEESVASPDGKPRASATRKTVSIVAMMQSQEEPDVRLLDVVSTHLGEGWKQVMRDLGMSEGQIDQAIIDHQMHGNIREVIYQLLLQWIRSSADGVATVGRLTTLLWESQHRDCVQRMKLVWKALEKRKTNS	binds
